The target of test [1] is T1, glucagon receptor (UniProt P47871 26-477, limits assumed).
T1 construct: whole, on cells; also called GR; Glucagon
The experiment in a line: receptor binding, method not described.

The target of test [2] is T1, glucagon receptor. The experiment in a line: cell-based or functional assay.
Test [3] concerns the target T1, glucagon receptor. The experiment in a line: receptor binding (named so for the same values in Table I), method not described.
Test [4] concerns the target T1, glucagon receptor. The experiment in a line: cell-based or functional assay. The source holds these as a separate data set.
Test [5] has as its target T1, glucagon receptor. In words: cell-based or functional assay. The source holds these as a separate data set.
Test [6] addresses T1, glucagon receptor. In words: receptor binding, method not described. The source holds these as a separate data set.
For test [7], the target named is T1, glucagon receptor. In words: assay not named in Table F; taken as receptor binding.

Consider nine molecules from US20120322725A1 (INDIANA UNIVERSITY RESEARCH AND TECHNOLOGY, published 2012).

Like-named read-outs stand apart in the source and are kept apart here. Ends that are not written are not given here. * marks the point of attachment. Carboxymethyl = O=C(O)C*

T1 sequence (P47871 26-477 limits assumed): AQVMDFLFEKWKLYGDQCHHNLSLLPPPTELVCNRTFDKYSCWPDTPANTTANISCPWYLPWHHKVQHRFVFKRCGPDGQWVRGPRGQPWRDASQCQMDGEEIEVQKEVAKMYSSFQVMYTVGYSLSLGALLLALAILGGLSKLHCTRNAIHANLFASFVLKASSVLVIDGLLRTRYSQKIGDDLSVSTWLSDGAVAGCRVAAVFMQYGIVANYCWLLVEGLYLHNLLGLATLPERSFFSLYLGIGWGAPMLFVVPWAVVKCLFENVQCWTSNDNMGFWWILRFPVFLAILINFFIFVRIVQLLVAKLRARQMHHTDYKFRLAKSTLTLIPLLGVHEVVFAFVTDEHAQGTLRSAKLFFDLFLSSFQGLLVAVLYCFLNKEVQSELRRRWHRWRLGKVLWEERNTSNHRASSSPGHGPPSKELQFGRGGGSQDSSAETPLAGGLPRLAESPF

B1: [Lys^9]Glucagon(aa6-29)-NH2 (peptide)
peptide: FTSKYSKYLDSRRAQDFVQWLMNT-NH2
notes: also called [K^9]Glucagon(aa6-29)-NH2; peptide no
In turn, B1 returned an IC50 in the test with glucagon receptor [1] of 3240 nM. Also, in the test with glucagon receptor [2], the “cAMP IC50” value stood at 398 nM and the “cAMP pA2” value came to 6.58. The molecule also registered an IC50 in the test with glucagon receptor [3] of 5780 nM. Moreover, in the test with glucagon receptor [4], the “cAMP (I/A)50” value is 1990 and the “cAMP pA2” value was 6.58.

B2: [desHis^1, desPhe^6, hCys^9(SO3^-), Phe^25, Leu^27]Glucagon-NH2 (peptide)
peptide: SQGTTSXYSKYLDSRRAQDFVQFLLNT
HELM: PEPTIDE1{S.Q.G.T.T.S.[O=C([C@H](CCS(=O)(=O)O)N[*:1])[*:2]].Y.S.K.Y.L.D.S.R.R.A.Q.D.F.V.Q.F.L.L.N.T.[am]}$$$$V2.0; N-terminus assumed
SMILES: CC(C)C[C@H](NC(=O)[C@H](Cc1ccc(O)cc1)NC(=O)[C@H](CCCCN)NC(=O)[C@H](CO)NC(=O)[C@H](Cc1ccc(O)cc1)NC(=O)[C@H](CCS(=O)(=O)O)NC(=O)[C@H](CO)NC(=O)[C@@H](NC(=O)[C@@H](NC(=O)CNC(=O)[C@H](CCC(N)=O)NC(=O)[C@@H](N)CO)[C@@H](C)O)[C@@H](C)O)C(=O)N[C@@H](CC(=O)O)C(=O)N[C@@H](CO)C(=O)N[C@@H](CCCNC(=N)N)C(=O)N[C@@H](CCCNC(=N)N)C(=O)N[C@@H](C)C(=O)N[C@@H](CCC(N)=O)C(=O)N[C@@H](CC(=O)O)C(=O)N[C@@H](Cc1ccccc1)C(=O)N[C@H](C(=O)N[C@@H](CCC(N)=O)C(=O)N[C@@H](Cc1ccccc1)C(=O)N[C@@H](CC(C)C)C(=O)N[C@@H](CC(C)C)C(=O)N[C@@H](CC(N)=O)C(=O)N[C@H](C(N)=O)[C@@H](C)O)C(C)C
notes: also called Cmpd
For B2, in the test with glucagon receptor [5], the “cAMP Induction EC50” value came out at 3210 nM and the “cAMP Inhibition IC50” value was 9220 nM. Also, the half-inhibitory concentration (IC50) in the test with glucagon receptor [6] was found to be 53.3 nM.

B3: [hGlu^9]Glucagon(aa6-29)-NH2 (peptide)
peptide: FTSXYSKYLDSRRAQDFVQWLMNT
HELM: PEPTIDE1{F.T.S.[O=C(O)CCC[C@H](N[*:1])C(=O)[*:2]].Y.S.K.Y.L.D.S.R.R.A.Q.D.F.V.Q.W.L.M.N.T.[am]}$$$$V2.0; N-terminus assumed
SMILES: CSCC[C@H](NC(=O)[C@H](CC(C)C)NC(=O)[C@H](Cc1c[nH]c2ccccc12)NC(=O)[C@H](CCC(N)=O)NC(=O)[C@@H](NC(=O)[C@H](Cc1ccccc1)NC(=O)[C@H](CC(=O)O)NC(=O)[C@H](CCC(N)=O)NC(=O)[C@H](C)NC(=O)[C@H](CCCNC(=N)N)NC(=O)[C@H](CCCNC(=N)N)NC(=O)[C@H](CO)NC(=O)[C@H](CC(=O)O)NC(=O)[C@H](CC(C)C)NC(=O)[C@H](Cc1ccc(O)cc1)NC(=O)[C@H](CCCCN)NC(=O)[C@H](CO)NC(=O)[C@H](Cc1ccc(O)cc1)NC(=O)[C@H](CCCC(=O)O)NC(=O)[C@H](CO)NC(=O)[C@@H](NC(=O)[C@@H](N)Cc1ccccc1)[C@@H](C)O)C(C)C)C(=O)N[C@@H](CC(N)=O)C(=O)N[C@H](C(N)=O)[C@@H](C)O
notes: also called [hE^9]Glucagon(aa6-29)-NH2; peptide no
For B3, the half-maximal inhibitory concentration (IC50) in the test with glucagon receptor [1] was 163 nM. In addition, in the test with glucagon receptor [2], the “cAMP IC50” value is 472 nM and the “cAMP pA2” value came to 6.27. In addition, in the test with glucagon receptor [3], the 50% inhibitory concentration (IC50) stood at 163 nM. Besides, in the test with glucagon receptor [4], the “cAMP (I/A)50” value worked out at 2360 and the “cAMP pA2” value came out at 6.27.

B4: [desHis^1, hCys^9(SO3^-), Phe^25, Leu^27]Glucagon-NH2 (peptide)
peptide: SQGTFTSXYSKYLDSRRAQDFVQFLLNT
HELM: PEPTIDE1{S.Q.G.T.F.T.S.[O=C([C@H](CCS(=O)(=O)O)N[*:1])[*:2]].Y.S.K.Y.L.D.S.R.R.A.Q.D.F.V.Q.F.L.L.N.T.[am]}$$$$V2.0; N-terminus assumed
SMILES: CC(C)C[C@H](NC(=O)[C@H](Cc1ccc(O)cc1)NC(=O)[C@H](CCCCN)NC(=O)[C@H](CO)NC(=O)[C@H](Cc1ccc(O)cc1)NC(=O)[C@H](CCS(=O)(=O)O)NC(=O)[C@H](CO)NC(=O)[C@@H](NC(=O)[C@H](Cc1ccccc1)NC(=O)[C@@H](NC(=O)CNC(=O)[C@H](CCC(N)=O)NC(=O)[C@@H](N)CO)[C@@H](C)O)[C@@H](C)O)C(=O)N[C@@H](CC(=O)O)C(=O)N[C@@H](CO)C(=O)N[C@@H](CCCNC(=N)N)C(=O)N[C@@H](CCCNC(=N)N)C(=O)N[C@@H](C)C(=O)N[C@@H](CCC(N)=O)C(=O)N[C@@H](CC(=O)O)C(=O)N[C@@H](Cc1ccccc1)C(=O)N[C@H](C(=O)N[C@@H](CCC(N)=O)C(=O)N[C@@H](Cc1ccccc1)C(=O)N[C@@H](CC(C)C)C(=O)N[C@@H](CC(C)C)C(=O)N[C@@H](CC(N)=O)C(=O)N[C@H](C(N)=O)[C@@H](C)O)C(C)C
notes: also called Cmpd
For the molecule B4, the “cAMP Induction EC50” value with glucagon receptor [5] was 430 nM. The IC50 in the test with glucagon receptor [6] was 13.9 nM.

B5: [desHis^1, desPhe^6]Glucagon-NH2 (peptide)
peptide: SQGTTSDYSKYLDSRRAQDFVQWLMNT-NH2
notes: also called Cmpd
As to B5, the “cAMP Induction EC50” value with glucagon receptor [5] is 1180 nM. In addition, the half-inhibitory concentration (IC50) in the test with glucagon receptor [6] came out at 130 nM.

B6: [(CSA-1)^9]Glucagon(aa2-29)-NH2 (peptide)
peptide: SQGTFTSC(Carboxymethyl)YSKYLDSRRAQDFVQWLMNT-NH2
modifications: N-terminus assumed
SMILES: CSCC[C@H](NC(=O)[C@H](CC(C)C)NC(=O)[C@H](Cc1c[nH]c2ccccc12)NC(=O)[C@H](CCC(N)=O)NC(=O)[C@@H](NC(=O)[C@H](Cc1ccccc1)NC(=O)[C@H](CC(=O)O)NC(=O)[C@H](CCC(N)=O)NC(=O)[C@H](C)NC(=O)[C@H](CCCNC(=N)N)NC(=O)[C@H](CCCNC(=N)N)NC(=O)[C@H](CO)NC(=O)[C@H](CC(=O)O)NC(=O)[C@H](CC(C)C)NC(=O)[C@H](Cc1ccc(O)cc1)NC(=O)[C@H](CCCCN)NC(=O)[C@H](CO)NC(=O)[C@H](Cc1ccc(O)cc1)NC(=O)[C@H](CSCC(=O)O)NC(=O)[C@H](CO)NC(=O)[C@@H](NC(=O)[C@H](Cc1ccccc1)NC(=O)[C@@H](NC(=O)CNC(=O)[C@H](CCC(N)=O)NC(=O)[C@@H](N)CO)[C@@H](C)O)[C@@H](C)O)C(C)C)C(=O)N[C@@H](CC(N)=O)C(=O)N[C@H](C(N)=O)[C@@H](C)O
notes: also called peptide no
In turn, B6 came in with a half-maximal inhibitory concentration (IC50) with glucagon receptor [7] of 12.7 nM.

B7: [desHis^1, Leu^4, Glu^9]Glucagon-NH2 (peptide)
peptide: SQLTFTSEYSKYLDSRRAQDFVQWLMNT-NH2
notes: also called Cmpd
In the case of B7, in the test with glucagon receptor [5], the “cAMP Induction EC50” value amounted to 318 nM and the “cAMP Inhibition IC50” value stood at 102 nM. The same molecule came in with an IC50 with glucagon receptor [6] of 36.9 nM.

B8: [desHis^1, Glu^9, Phe^25, Leu^27]Glucagon-NH2 (peptide)
peptide: SQGTFTSEYSKYLDSRRAQDFVQFLLNT-NH2
As to B8, the “cAMP Induction EC50” value with glucagon receptor [5] worked out at 81 nM. In the test with glucagon receptor [6], this molecule came in with an IC50 of 12.6 nM.

B9: [(CSA-2)^9]Glucagon(aa2-29)-NH2 (peptide)
peptide: SQGTFTSCYSKYLDSRRAQDFVQWLMNT
HELM: PEPTIDE1{S.Q.G.T.F.T.S.[O=C(O)CCSC[C@H](N[*:1])C(=O)[*:2]].Y.S.K.Y.L.D.S.R.R.A.Q.D.F.V.Q.W.L.M.N.T.[am]}$$$$V2.0; N-terminus assumed
SMILES: CSCC[C@H](NC(=O)[C@H](CC(C)C)NC(=O)[C@H](Cc1c[nH]c2ccccc12)NC(=O)[C@H](CCC(N)=O)NC(=O)[C@@H](NC(=O)[C@H](Cc1ccccc1)NC(=O)[C@H](CC(=O)O)NC(=O)[C@H](CCC(N)=O)NC(=O)[C@H](C)NC(=O)[C@H](CCCNC(=N)N)NC(=O)[C@H](CCCNC(=N)N)NC(=O)[C@H](CO)NC(=O)[C@H](CC(=O)O)NC(=O)[C@H](CC(C)C)NC(=O)[C@H](Cc1ccc(O)cc1)NC(=O)[C@H](CCCCN)NC(=O)[C@H](CO)NC(=O)[C@H](Cc1ccc(O)cc1)NC(=O)[C@H](CSCCC(=O)O)NC(=O)[C@H](CO)NC(=O)[C@@H](NC(=O)[C@H](Cc1ccccc1)NC(=O)[C@@H](NC(=O)CNC(=O)[C@H](CCC(N)=O)NC(=O)[C@@H](N)CO)[C@@H](C)O)[C@@H](C)O)C(C)C)C(=O)N[C@@H](CC(N)=O)C(=O)N[C@H](C(N)=O)[C@@H](C)O
notes: also called peptide no
B9 returned an IC50 with glucagon receptor [7] of 13.3 nM.
